# Patent publication US12467929
# Legend:
# [1] = molecular target: recombinant UBE3A protein (Homo sapiens (Human)) (UniProt Q05086); experiment: 3-step Simoa; capture GTX; UBE3A 0.122 ng/ml
# [2] = molecular target: recombinant UBE3A protein (Homo sapiens (Human)) (UniProt Q05086); experiment: 2-step Simoa; capture GTX; UBE3A 125 ng/ml
# [3] = molecular target: recombinant UBE3A protein (Homo sapiens (Human)) (UniProt Q05086); experiment: 2-step Simoa; capture GTX; UBE3A 500 ng/ml
# [4] = molecular target: recombinant UBE3A protein (Homo sapiens (Human)) (UniProt Q05086); experiment: Simoa head-to-head, Table 11; capture MS 2F6; UBE3A 0.16 ng/ml
# [5] = molecular target: recombinant UBE3A protein (Homo sapiens (Human)) (UniProt Q05086); experiment: Simoa head-to-head, Table 10; capture MS 2F6; UBE3A 0.16 ng/ml
# [6] = molecular target: recombinant UBE3A protein (Homo sapiens (Human)) (UniProt Q05086); experiment: 3-step Simoa, 120 min bead step; capture GTX; UBE3A 0.0320 ng/ml
# [7] = molecular target: recombinant UBE3A protein (Homo sapiens (Human)) (UniProt Q05086); experiment: 3-step Simoa; capture MS 2F6; UBE3A 0.010 ng/ml
# [8] = molecular target: recombinant UBE3A protein (Homo sapiens (Human)) (UniProt Q05086); experiment: Simoa; capture GTX + helper beads; 3E5 0.2 ug/ml; UBE3A 0.00128 ng/ml
# [9] = molecular target: recombinant UBE3A protein (Homo sapiens (Human)) (UniProt Q05086); experiment: Simoa head-to-head, Table 10; capture MS 2F6; UBE3A 0.032 ng/ml
# [10] = molecular target: recombinant UBE3A protein (Homo sapiens (Human)) (UniProt Q05086); experiment: Simoa; capture GTX; 3E5 0.8 ug/ml; UBE3A 0.800 ng/ml
# [11] = molecular target: recombinant UBE3A protein (Homo sapiens (Human)) (UniProt Q05086); experiment: Simoa; capture GTX, no helper beads; 3E5 0.1 ug/ml; UBE3A 20.0 ng/ml
# [12] = molecular target: recombinant UBE3A protein (Homo sapiens (Human)) (UniProt Q05086); experiment: Simoa; capture GTX, no helper beads; 3E5 0.2 ug/ml; UBE3A 0.800 ng/ml
# [13] = molecular target: recombinant UBE3A protein (Homo sapiens (Human)) (UniProt Q05086); experiment: Simoa; capture GTX + helper beads; 3E5 0.4 ug/ml; UBE3A 20.0 ng/ml
# [14] = molecular target: recombinant UBE3A protein (Homo sapiens (Human)) (UniProt Q05086); experiment: Simoa; capture GTX, no helper beads; 3E5 0.1 ug/ml; UBE3A 0.00128 ng/ml
# [15] = molecular target: recombinant UBE3A protein (Homo sapiens (Human)) (UniProt Q05086); experiment: Simoa head-to-head, Table 11; capture GTX; UBE3A 0.16 ng/ml
# [16] = molecular target: recombinant UBE3A protein (Homo sapiens (Human)) (UniProt Q05086); experiment: Simoa; capture GTX; 3E5 0.4 ug/ml; UBE3A 0.0320 ng/ml
# [17] = molecular target: recombinant UBE3A protein (Homo sapiens (Human)) (UniProt Q05086); experiment: Simoa head-to-head, Table 10; capture MS 2F6; UBE3A 100 ng/ml
# [18] = molecular target: recombinant UBE3A protein (Homo sapiens (Human)) (UniProt Q05086); experiment: 3-step Simoa, 120 min bead step; capture GTX; UBE3A 0.00640 ng/ml
# [19] = molecular target: recombinant UBE3A protein (Homo sapiens (Human)) (UniProt Q05086); experiment: Simoa; capture GTX, no helper beads; 3E5 0.1 ug/ml; UBE3A 0.160 ng/ml
# [20] = molecular target: recombinant UBE3A protein (Homo sapiens (Human)) (UniProt Q05086); experiment: Simoa; capture GTX + helper beads; 3E5 0.1 ug/ml; UBE3A 0.160 ng/ml
# [21] = molecular target: recombinant UBE3A protein (Homo sapiens (Human)) (UniProt Q05086); experiment: Simoa; capture GTX, no helper beads; 3E5 0.4 ug/ml; UBE3A 0.160 ng/ml
# Chain of UniProt Q05086 (Q05086 whole entry): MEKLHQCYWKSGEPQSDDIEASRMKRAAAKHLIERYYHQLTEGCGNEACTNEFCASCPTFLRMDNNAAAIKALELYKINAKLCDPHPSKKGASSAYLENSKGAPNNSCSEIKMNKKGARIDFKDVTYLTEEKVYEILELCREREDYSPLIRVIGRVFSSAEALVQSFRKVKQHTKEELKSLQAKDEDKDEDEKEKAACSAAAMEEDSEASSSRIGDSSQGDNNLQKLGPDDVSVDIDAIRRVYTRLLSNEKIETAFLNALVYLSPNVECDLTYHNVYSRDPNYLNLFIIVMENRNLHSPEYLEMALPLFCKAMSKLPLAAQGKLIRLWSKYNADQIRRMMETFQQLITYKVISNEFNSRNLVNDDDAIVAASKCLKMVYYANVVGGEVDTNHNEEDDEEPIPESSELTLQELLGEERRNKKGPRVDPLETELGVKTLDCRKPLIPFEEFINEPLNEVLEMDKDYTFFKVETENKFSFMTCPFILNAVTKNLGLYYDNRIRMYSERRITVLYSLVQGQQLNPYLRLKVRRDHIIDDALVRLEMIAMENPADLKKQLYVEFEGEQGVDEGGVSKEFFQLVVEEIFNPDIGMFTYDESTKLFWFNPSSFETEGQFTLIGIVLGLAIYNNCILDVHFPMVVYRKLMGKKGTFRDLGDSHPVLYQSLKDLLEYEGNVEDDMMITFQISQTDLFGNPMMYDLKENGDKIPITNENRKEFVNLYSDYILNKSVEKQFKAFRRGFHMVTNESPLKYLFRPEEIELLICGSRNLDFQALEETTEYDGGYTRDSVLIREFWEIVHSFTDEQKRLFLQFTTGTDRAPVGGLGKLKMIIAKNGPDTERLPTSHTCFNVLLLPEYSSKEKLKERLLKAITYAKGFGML
substance,measurement,setting,value
NB500-240 (Novus) (antibody),AEB1,[1],0.0021
same,AEB2,[1],0.002
same,Ave AEB,[1],0.002
same,Signal to Background,[1],0.624
same,AEB1,[2],0.263
same,AEB2,[2],0.241
same,Ave AEB,[2],0.252
same,Signal to Background,[2],77.1
same,AEB1,[3],0.303
same,AEB2,[3],0.308
same,Ave AEB,[3],0.305
same,Signal to Background,[3],93.4
"anti-UBE3A antibody 3E5 (SAB1404508-100 ug, Millipore-Sigma)",AEB1,[4],0.0071
same,AEB2,[4],0.0078
same,Ave AEB,[4],0.0074
same,Signal to Background,[4],1.96
same,AEB1,[5],0.0183
same,AEB2,[5],0.0155
same,Ave AEB,[5],0.0169
same,Signal to Background,[5],1.25
same,AEB1,[6],0.0115
same,AEB2,[6],0.0095
same,Ave AEB,[6],0.0105
same,Signal to Background,[6],6.15
same,AEB1,[7],0.0035
same,AEB2,[7],0.0048
same,Ave AEB,[7],0.0042
same,Signal to Background,[7],1.06
same,AEB1,[8],0.0127
same,AEB2,[8],0.0115
same,Average AEB,[8],0.0121
same,Signal to Background,[8],1.25
same,AEB1,[9],0.0162
same,AEB2,[9],0.0146
same,Ave AEB,[9],0.0154
same,Signal to Background,[9],1.14
same,AEB1,[10],0.589
same,AEB2,[10],0.605
same,AEB3,[10],0.615
same,Average AEB,[10],0.603
same,Signal to Background,[10],4.92
same,AEB1,[11],3.57
same,AEB2,[11],3.21
same,Average AEB,[11],3.39
same,Signal to Background,[11],592
same,AEB1,[12],0.25
same,AEB2,[12],0.247
same,Average AEB,[12],0.249
same,Signal to Background,[12],25.7
same,AEB1,[13],4.41
same,AEB2,[13],6.45
same,Average AEB,[13],5.43
same,Signal to Background,[13],278
same,AEB1,[14],0.005
same,AEB2,[14],0.0075
same,Average AEB,[14],0.0062
same,Signal to Background,[14],1.09
same,AEB1,[15],0.0288
same,AEB2,[15],0.0291
same,Ave AEB,[15],0.0289
same,Signal to Background,[15],3.53
same,AEB1,[16],0.0958
same,AEB2,[16],0.0924
same,AEB3,[16],0.095
same,Average AEB,[16],0.0944
same,Signal to Background,[16],1.51
same,AEB1,[17],2.71
same,AEB2,[17],2.88
same,Ave AEB,[17],2.8
same,Signal to Background,[17],207
same,AEB1,[18],0.0054
same,AEB2,[18],0.0055
same,Ave AEB,[18],0.0055
same,Signal to Background,[18],3.22
same,AEB1,[19],0.0402
same,AEB2,[19],0.0395
same,Average AEB,[19],0.0399
same,Signal to Background,[19],6.95
same,AEB1,[20],0.0417
same,AEB2,[20],0.0425
same,Average AEB,[20],0.0421
same,Signal to Background,[20],7.34
same,AEB1,[21],0.1
same,AEB2,[21],0.108
same,Average AEB,[21],0.104
same,Signal to Background,[21],5.33
